# Measured values as given in US11932845B2, “Microorganisms and methods for production of 4-hydroxybutyrate, 1,4-butanediol and related compounds” (priority 2012, dated 2024).
# T1: phosphotransbutyrylase (ptb) (Clostridium acetobutylicum, UniProt P58255)
# T1 sequence (P58255 whole entry, looked up): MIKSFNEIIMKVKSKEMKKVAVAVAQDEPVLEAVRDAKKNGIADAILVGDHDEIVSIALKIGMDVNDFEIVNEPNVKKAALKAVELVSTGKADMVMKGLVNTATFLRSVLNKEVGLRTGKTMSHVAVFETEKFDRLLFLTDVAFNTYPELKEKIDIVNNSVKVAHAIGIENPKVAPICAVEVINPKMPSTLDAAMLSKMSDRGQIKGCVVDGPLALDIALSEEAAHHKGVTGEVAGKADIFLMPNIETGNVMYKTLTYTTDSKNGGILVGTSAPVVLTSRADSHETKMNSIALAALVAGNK
# What was measured:
# [1] = system: L(+)-lactate dehydrogenase from A. eutrophus; conditions: compared with that on pyruvate; cited from earlier work
# [2] = molecular target: T2, L(+)-lactate dehydrogenase from rabbit muscle (Oryctolagus cuniculus, UniProt P13491); conditions: compared with that on pyruvate; cited from earlier work
# T2 construct: host or cells: rabbit muscle
# [3] = system: D(−)-lactate dehydrogenase from L. leichmanii; conditions: compared with that on pyruvate; cited from earlier work
# [4] = system: branched chain alpha-ketoacid decarboxylase (BCKA); conditions: decarboxylation; cited from earlier work
# [5] = Minohara et al., 2002; read-out: Km for O2; cited from earlier work
# [6] = molecular target: T1, phosphotransbutyrylase (ptb); assay: PTB enzyme activity, butyryl-CoA to butyryl-phosphate, DTNB; assay type: biochemical, C. acetobutylicum; conditions: extracts of cells with pZA33-0020-0021
# Description: The enzyme activity of PTB is measured in the direction of butyryl-CoA to butyryl-phosphate as described in Cary et al. J. Bacteriol. 170:4613-4618 (1988). It provides inorganic phosphate for the conversion, and follows the increase in free CoA with the reagent 5,5′-dithiobis-(2-nitrobenzoic acid), or DTNB. DTNB rapidly reacts with thiol groups such as free CoA to release the yellow-colored 2-nitro-5-mercaptobenzoic acid (TNB), which absorbs at 412 nm with a molar extinction coefficient of 14,140 M cm^−1. The assay buffer contained 150 mM potassium phosphate at pH 7.4, 0.1 mM DTNB, and 0.2 mM butyryl-CoA, and the reaction was started by addition of 2 to 50 μL cell extract. The enzyme activity of BK is measured in the direction of butyrate to butyryl-phosphate formation at the expense of ATP. The procedure is similar to the assay for acetate kinase previously described Rose et al., J. Biol. Chem. 211:737-756 (1954). […] This assay links conversion of ATP to ADP by acetate kinase to the linked conversion of ADP and phosphoenolpyruvate (PEP) to ATP and pyruvate by pyruvate kinase, followed by the conversion of pyruvate and NADH to lactate and NAD+ by lactate dehydrogenase. […] The reaction was started by adding 2 to 50 μL cell extract, and the reaction was monitored based on the decrease in absorbance at 340 nm indicating NADH oxidation.
# [7] = system: Alcohol dehydrogenase; assay: Alcohol dehydrogenase (ADH) assay in the reductive direction, cell extracts; conditions: cell extracts from MG1655 lacI^Q containing pZA33
# Description: (§1) Alcohol (ADH) and aldehyde (ALD) dehydrogenase was assayed in the reductive direction using a procedure adapted from several literature sources (Durre et al., FEMS Microbiol. Rev. 17:251-262 (1995); Palosaari and Rogers, J. Bacteriol. 170:2971-2976 (1988) and Welch et al., Arch. Biochem. Biophys. 273:309-318 (1989). The oxidation of NADH is followed by reading absorbance at 340 nm every four seconds for a total of 240 seconds at room temperature. The reductive assays were performed in 100 mM MOPS (adjusted to pH 7.5 with KOH), 0.4 mM NADH, and from 1 to 50 μl of cell extract. The reaction is started by adding the following reagents: 100 μl of 100 mM acetaldehyde or butyraldehyde for ADH, or 100 μl of 1 mM acetyl-CoA or butyryl-CoA for ALD. The Spectrophotometer is quickly blanked and then the kinetic read is started. The resulting slope of the reduction in absorbance at 340 nm per minute, along with the molar extinction coefficient of NAD(P)H at 340 nM (6000) and the protein concentration of the extract, can be used to determine the specific activity.
# (§2) Gene candidates for the 4-HB to BDO conversion pathway were next tested for activity when expressed in the E. coli host MG1655 lacI^Q. Recombinant strains containing each gene candidate expressed on pZA33 were grown in the presence of 0.25 mM IPTG for four hours at 37° C. to fully induce expression of the enzyme. Four hours after induction, cells were harvested and assayed for ADH and ALD activity as described above.
# [8] = system: Aldehyde dehydrogenase; assay: Aldehyde dehydrogenase (ALD) assay in the reductive direction, cell extracts; conditions: cell extracts from MG1655 lacI^Q containing pZA33
# Description: as §1, §2
# [9] = system: BDO pathway; assay type: cell-based, E. coli; conditions: host ECKh-432 with aldehyde dehydrogenase; 23G needle
# [10] = system: 4-HB to BDO conversion pathway; assay: Production of BDO from 10 mM 4-HB in recombinant E. coli strains; conditions: for BDO: adhE2 in pZE13
# Description: For the BDO production experiments, cat2 from Porphyromonas gingivalis W83 (gene 0034) was included on pZA33 for the conversion of 4-HB to 4-HB-CoA, while the candidate dehydrogenase genes were expressed on pZE13. The host strain was MG1655 lacI^Q. Along with the alcohol and aldehyde dehydrogenase candidates, we also tested the ability of CoA-dependent succinic semialdehyde dehydrogenases (sucD) to function in this step, due to the similarity of the substrates. Cells were grown to an OD of about 0.5 in LB medium supplemented with 10 mM 4-HB, induced with 1 mM IPTG, and culture broth samples taken after 24 hours and analyzed for BDO as described below.
# Finally, the construct was tested for participation in the conversion of 4-HB to BDO. Host strains were transformed with the pZA33-0020-0021 construct described and pZE13-0002, and compared to use of cat2 in BDO production using the aerobic procedure used above in FIG. 5.
molecule,measurement,setting,value
O=C(O)CCC(=O)C(=O)O [2-Oxoglutarate],Activity (%) of L(+)-lactate dehydrogenase from A. eutrophus,[1],79.6%
same,Activity (%) of L(+)-lactate dehydrogenase from rabbit muscle,[2],0.0%
same,Activity (%) of D(−)-lactate dehydrogenase from L. leichmanii,[3],0.0%
same,activity relative to activity on other branched-chain substrates,[4],5%
"cytochrome bd oxidase: E. coli cytochrome d terminal oxidase, encoded by the cyd operon",Km,[5],0.01 µM
"PTB: phosphotransbutyrylase (ptb) from C. acetobutylicum, gene 0020 (protein, UniProt P58255 1-301, looked up) Phosphate butyryltransferase: MIKSFNEIIMKVKSKEMKKVAVAVAQDEPVLEAVRDAKKNGIADAILVGDHDEIVSIALKIGMDVNDFEIVNEPNVKKAALKAVELVSTGKADMVMKGLVNTATFLRSVLNKEVGLRTGKTMSHVAVFETEKFDRLLFLTDVAFNTYPELKEKIDIVNNSVKVAHAIGIENPKVAPICAVEVINPKMPSTLDAAMLSKMSDRGQIKGCVVDGPLALDIALSEEAAHHKGVTGEVAGKADIFLMPNIETGNVMYKTLTYTTDSKNGGILVGTSAPVVLTSRADSHETKMNSIALAALVAGNK",specific activity of PTB,[6],approximately 5 U/mg
"0026: Gene ID 0026, bdhA, Clostridium acetobutylicum ATCC 824, Butanol dehydrogenase (protein, UniProt Q04944 1-389, looked up) NADH-dependent butanol …: MLSFDYSIPTKVFFGKGKIDVIGEEIKKYGSRVLIVYGGGSIKRNGIYDRATAILKENNIAFYELSGVEPNPRITTVKKGIEICRENNVDLVLAIGGGSAIDCSKVIAAGVYYDGDTWDMVKDPSKITKVLPIASILTLSATGSEMDQIAVISNMETNEKLGVGHDDMRPKFSVLDPTYTFTVPKNQTAAGTADIMSHTFESYFSGVEGAYVQDGIAEAILRTCIKYGKIAMEKTDDYEARANLMWASSLAINGLLSLGKDRKWSCHPMEHELSAYYDITHGVGLAILTPNWMEYILNDDTLHKFVSYGINVWGIDKNKDNYEIAREAIKNTREYFNSLGIPSKLREVGIGKDKLELMAKQAVRNSGGTIGSLRPINAEDVLEIFKKSY","Alcohol dehydrogenase, Substrate Acetaldehyde",[7],0.0008 μmol min^−1 mg cell protein^−1
same,"Alcohol dehydrogenase, Substrate Butyraldehyde",[7],0.0024 μmol min^−1 mg cell protein^−1
same,"Aldehyde dehydrogenase, Substrate Acetyl-CoA",[8],0.0005 μmol min^−1 mg cell protein^−1
same,"Aldehyde dehydrogenase, Substrate Butyryl-CoA",[8],0 μmol min^−1 mg cell protein^−1
"0034: Gene ID 0034, cat2, Porphyromonas gingivalis W83, 4-hydroxybutyrate coenzyme A transferase (protein, listed as Porphyromonas gingivalis) MKDVLAEYASRIVSAEEAVKHIKNGERVALSHAAGVPQSCVDALVQQADLFQNVEIYHMLCLGEGKYMAPEMAPHFRHITNFVGGNSRKAVEENRADFIPVFFYEVPSMIRKDILHIDVAIVQLSMPDENGYCSFGVSCDYSKPAAESAHLVIGEINRQMPYVHGDNLIHISKLDYIVMADYPIYSLAKPKIGEVEEAIGRNCAELIEDGATLQLGIGAIPDAALLFLKDKKDLGIHTEMFSDGVVELVRSGVITGKKKTLHPGKMVATFLMGSEDVYHFIDKNPDVELYPVDYVNDPRVIAQNDNMVSINSCIEIDLMGQVVSECIGSKQFSGTGGQVDYVRGAAWSKNGKSIMAIPSTAKNGTASRIVPIIAEGAAVTTLRNEVDYVVTEYGIAQLKGKSLRQRAEALIAIAHPDFREELTKHLRKRFG",BDO and GBL levels,[9],significantly higher than 2021n
same,BDO/OD,[10]; Host Strain MG1655 lacI^Q,0.042
same,BDO,"[10]; Host Strain MG1655 lacI^Q, aerobic procedure",0.827 µM
same,BDO/OD,[10]; Host Strain MG1655 ΔadhE lacI^Q,0.166
same,BDO,"[10]; Host Strain MG1655 ΔadhE lacI^Q, aerobic procedure",2.084 µM
same,BDO produced,"[10]; with pZE13-0002, aerobic procedure",2 mM
